In paper PMC9934072, “The mechanism of thia-Michael addition catalyzed by LanC enzymes” (Proceedings of the National Academy of Sciences of the …, 2023):
Ends that are not written are not given here.

Experiments:
[1] = biological target: fluorescein-labeled Dha-Erk peptide; assay: fluorescence polarisation; LanCL1 or variant titrated (highest 400 μM, 300 μM for some variants) against 20 nM fluorescein-peptide; 0.5 mM TCEP, 0.1 mM ZnCl2, 150 mM NaCl, 100 mM Tris pH 7.5, no GSH; 15 min incubation; triplicates
[2] = biological target: Fluorescein-labeled Erk peptide in which the Dha was substituted by L-Ala; assay: fluorescence polarisation; fluorescein-labeled peptide with LanCL1 or its variants; in the absence of GSH to avoid catalytic turnover
[3] = biological target: T1, LanCL1 Wild Type (human LanC-like protein 1) (human, UniProt O43813 1-399); assay: fluorescence polarisation; LanCL1 or variant titrated (highest 400 μM, 300 μM for some variants) against 20 nM fluorescein-peptide; 0.5 mM TCEP, 0.1 mM ZnCl2, 150 mM NaCl, 100 mM Tris pH 7.5, no GSH; 15 min incubation; triplicates; settings: both partners purified
T1 construct: LanC-like protein 1 (LanCL1), human; also called LanCL1 WT; WT-LanCL1; source: E. coli Rosetta 2 (DE3), purified (HisTrap Ni-NTA, PD-10 desalting)
T1 sequence (O43813 whole entry): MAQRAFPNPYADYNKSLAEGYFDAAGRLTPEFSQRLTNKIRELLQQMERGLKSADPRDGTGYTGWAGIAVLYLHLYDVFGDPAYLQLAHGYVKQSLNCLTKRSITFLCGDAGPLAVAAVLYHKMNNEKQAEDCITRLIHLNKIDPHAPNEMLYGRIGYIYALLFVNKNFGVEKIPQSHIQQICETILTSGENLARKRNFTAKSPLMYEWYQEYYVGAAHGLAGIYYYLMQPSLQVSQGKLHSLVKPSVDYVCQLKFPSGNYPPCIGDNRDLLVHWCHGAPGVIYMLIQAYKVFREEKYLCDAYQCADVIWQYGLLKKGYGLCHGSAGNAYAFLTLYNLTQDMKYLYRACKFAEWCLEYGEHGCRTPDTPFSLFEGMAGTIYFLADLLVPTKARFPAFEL

[4] = biological target: T1, LanCL1 Wild Type (human LanC-like …); assay: as above; settings: both partners purified; remark: listed apart in the source

LanCL1 C264A/H277N (from UniProt O43813 1-399) (enzyme)
Kd [1]: > 315 µM

LanCL1 C264A/H277K (from UniProt O43813 1-399) (enzyme)
Kd [1]: > 470 µM

human LanCL1, wild type (His6-LanCL1) (from UniProt O43813 1-399) (enzyme)
fold weaker binding than Flu-Dha-Erk [2]: 4 fold

LanCL1 C264A/H277A (from UniProt O43813 1-399) (enzyme)
Kd [1]: > 112 µM

B1: fluorescein-labeled Ala-Erk peptide (peptide)
peptide: DHTGFLAEYVATR
modifications: also: fluorescein label, end not given here
notes: Numbers count on: the synthetic 13-mer; Its preparation is not described; also called Flu-Ala-Erk; fluorescein-Ala-Erk
Kd [3]: 79.6 ± 7.6 µM
Kd [4]: > 133 µM
